Laboratory results taken from patent publication US7718768B2, “Biologically active peptide [sequence]” (CMS Peptides Patent Holding Company Limited, priority 2001, dated 2010).

Legend:
Type in all cases: in vivo, BALB/c mice
anti-SRBC antibody = experiment: Sheep Red Blood Cell (SRBC) hemolysis test, anti-SRBC antibody formation; settings: SRBC on day 12, IFN-γ and IL-2 groups 3×10^5 IU/kg/day, X ± SD
Summary of the method: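 Hemolytic antibody read-out: day-16 mouse serum (1:500) incubated 10 min at 37 °C with 2% SRBC and Cavy-serum complement, supernatant treated with Drabkin solution, OD540nm measured. Animals were SRBC-immunized i.p. (0.2 ml) on day 12 during dosing.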

[1] = immunity organ weight test (thymus gland index, spleen index); settings: IFN-γ and IL-2 groups 3×10^5 IU/kg/day, X ± SD
Summary of the method: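 Organs (thymus, spleen, liver) were weighed one day after the last of 15 daily i.p. doses given in saline. Indices are expressed as percentage of body weight, with α derived from body weight relative to combined liver and spleen weight.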

mononuclear phagocyte = experiment: carbon particle clearance test, phagocytotic activity of mononuclear phagocyte; parameters: key: α = (cube root of K)×(body weight ÷ liver+spleen weight); settings: IFN-γ and IL-2 groups 3×10^5 IU/kg/day, X ± SD
Summary of the method: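 Mice received India ink (0.1 ml/kg i.v., 5-fold diluted) on day 16, one day after last dosing; blood at 1 and 5 min was lysed in 0.1% Na2CO3 and read at OD680. Clearance index K from log OD decline; phagocytic index α = ∛K × body weight/(liver+spleen weight); thymus and spleen indices as % body weight.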

NK cell = NK cell cytotoxicity activity test (YAC-1 target cells, MTT) on spleen cells of treated mice; settings: IFN-γ and IL-2 groups 3×10^5 IU/kg/day, X ± SD
Summary of the method: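 Mice (ten per group) dosed i.p. once daily for 15 days in 0.5 ml saline; spleens taken the next day, erythrocytes lysed with Tris-NH4Cl. Spleen cells (4×10^6/ml) mixed with YAC-1 targets (1×10^5/ml) in triplicate per mouse. Viability by MTT, 4 h at 37° C., OD570nm referenced at 630 nm.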

[2] = peptide 0.5 μg/kg/day i.p. 15 days
[3] = peptide 5 μg/kg/day i.p. 15 days
[4] = peptide 50 μg/kg/day i.p. 15 days
[5] = peptide 500 μg/kg/day i.p. 15 days

B1: IFN-γ: recombinant mouse interferon-γ, Beijing Biotech Inc.; positive control immunostimulant (protein, UniProt P01580 23-155, looked up)
Interferon gamma: HGTVIESLESLNNYFNSSGIDVEEKSLFLDIWRNWQKDGDMKILQSQIISFYLRLFEVLKDNQAISNNISVIESHLITTFFSNSKAKKDAFMSIAKFEVNNPQVQRQAFNELIRVVHQLLPESSLRKRKRSRC
- anti-SRBC antibody formation (sample serum index) (anti-SRBC antibody; [2]): 37 ± 10 Unit
- anti-SRBC antibody formation (sample serum index) (anti-SRBC antibody; [3]): 37 ± 10 Unit
- anti-SRBC antibody formation (sample serum index) (anti-SRBC antibody; [4]): 37 ± 10 Unit
- anti-SRBC antibody formation (sample serum index) (anti-SRBC antibody; [5]): 37 ± 10 Unit
- weight of spleen (spleen index) [1, 2]: 0.50 ± 0.04%
- weight of thymus gland (thymus gland index) [1, 2]: 0.15 ± 0.04%
- weight of thymus gland (thymus gland index) [1, 3]: 0.15 ± 0.04%
- weight of spleen (spleen index) [1, 4]: 0.50 ± 0.04%
- weight of thymus gland (thymus gland index) [1, 4]: 0.15 ± 0.04%
- weight of thymus gland (thymus gland index) [1, 5]: 0.15 ± 0.04%
- phagocytotic index (mononuclear phagocyte; [2]): 6.4 ± 0.9
- phagocytotic index (mononuclear phagocyte; [3]): 6.4 ± 0.9
- phagocytotic index (mononuclear phagocyte; [4]): 6.4 ± 0.9
- phagocytotic index (mononuclear phagocyte; [5]): 6.4 ± 0.9
- NK cell cytotoxic activity (NK cell activity index) (NK cell; [2]): 72 ± 9 %
- NK cell cytotoxic activity (NK cell activity index) (NK cell; [3]): 80 ± 8 %
- NK cell cytotoxic activity (NK cell activity index) (NK cell; [4]): 73 ± 10 %
- NK cell cytotoxic activity (NK cell activity index) (NK cell; [5]): 77 ± 8 %
